This is an account of results in patent publication US20240228562A1, “NOVEL LIPOCALIN MUTEINS SPECIFIC FOR CONNECTIVE TISSUE GROWTH FACTOR (CTGF)” (PIERIS PHARMACEUTICALS GMBH, priority 2021, published 2024).

Where a chain is given by its changes, count along the chain named.

By Kd is commonly meant the free concentration of one partner at which half of the binding sites on the other are occupied at equilibrium, for simple one-to-one binding.

One data set concerns the target T1, CTGF (Homo sapiens, UniProt P29279).
T1 sequence (P29279 27-349): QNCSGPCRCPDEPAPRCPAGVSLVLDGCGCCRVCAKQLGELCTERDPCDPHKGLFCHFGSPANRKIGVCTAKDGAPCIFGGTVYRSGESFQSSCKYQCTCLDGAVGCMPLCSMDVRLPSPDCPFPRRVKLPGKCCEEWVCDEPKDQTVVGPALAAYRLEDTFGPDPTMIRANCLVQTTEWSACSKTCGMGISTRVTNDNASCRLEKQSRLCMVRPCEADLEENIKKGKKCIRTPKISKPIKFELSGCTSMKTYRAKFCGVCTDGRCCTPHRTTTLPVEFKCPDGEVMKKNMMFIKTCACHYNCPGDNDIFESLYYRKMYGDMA
In words: Specificity ELISA (CCN proteins), human CTGF. It is filed as binding. The settings on record: coated 1 μg/ml, muteins from 1000 nM. The protocol:
(§1) Binding of muteins to closely related proteins of CTGF was tested by an ELISA assay. In detail, a 384-well plate suitable for fluorescence measurements (Greiner FLUOTRAC™ 600, black flat bottom, high-binding) was coated with 20 μl of human CTGF or the other members of the CCN protein family at a concentration of 1 μg/ml in PBS over night at 4° C. After washing with PBS with 0.05% Tween 20, wells were blocked with 100 μl blocking buffer containing 0.1% Tween 20 and 2% BSA (PBS-T/BSA) for 1 h at room temperature. 20 μl of serially diluted muteins starting at 1000 nM were incubated in PBS-T/BSA for 1 h at room temperature (RT).
(§2) The residual supernatants were discarded and 20 μl HRP-labeled anti-NGAL or anti-Strep-Tag antibody was added at a predetermined optimal concentration in PBS-T/BSA and incubated for 1 h at RT. After washing, 20 μl fluorogenic HRP substrate (QuantaBlu, Thermo) was added to each well, and the reaction was allowed to proceed for 2 to 60 minutes. The fluorescence intensity of every well on the plate was read using a fluorescence microplate reader (Tecan). When the signal for human CTGF approached saturation, the cross reactivity to the other proteins was assessed.

The nature of data set [1]: Thermal stability assessment by nanoDSC. Type of data set: physicochemical. The settings on record: 1 mg/mL in PBS, scan 25-100° C. at 1° C./min; for TM: major transition. The procedure, abridged:
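CTGF-specific lipocalin muteins at 1 mg/mL in PBS scanned from 25 to 100° C at 1° C/min by capillary nano-DSC. Where several transitions occur, the Tm of the major unfolding event is reported, along with onset temperature. Some muteins were expressed in E. coli, others in CHO cells.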

The target of a further data set is T2, huNOV (Homo sapiens, UniProt P48745).
T2 sequence (P48745 32-357): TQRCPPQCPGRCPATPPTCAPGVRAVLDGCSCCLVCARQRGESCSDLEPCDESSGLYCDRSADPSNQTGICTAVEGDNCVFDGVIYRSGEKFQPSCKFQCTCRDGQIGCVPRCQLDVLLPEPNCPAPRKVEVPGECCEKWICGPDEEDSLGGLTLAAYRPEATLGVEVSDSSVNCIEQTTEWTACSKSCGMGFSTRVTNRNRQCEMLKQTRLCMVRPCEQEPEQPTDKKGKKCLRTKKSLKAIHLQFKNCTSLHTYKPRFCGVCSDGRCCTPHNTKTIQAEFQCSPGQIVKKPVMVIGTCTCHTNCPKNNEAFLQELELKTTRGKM
Kind of data set: Specificity ELISA (CCN proteins), huNOV. Type of data set: binding. The settings on record: coated 1 μg/ml; assessed when human CTGF signal approached saturation. On the procedure: as §1, §2
A general note: ELISA stands for enzyme-linked immunosorbent assay.

A further data set has as its target T3, huWISP-3 (Homo sapiens, UniProt O95389).
T3 sequence (O95389 24-354): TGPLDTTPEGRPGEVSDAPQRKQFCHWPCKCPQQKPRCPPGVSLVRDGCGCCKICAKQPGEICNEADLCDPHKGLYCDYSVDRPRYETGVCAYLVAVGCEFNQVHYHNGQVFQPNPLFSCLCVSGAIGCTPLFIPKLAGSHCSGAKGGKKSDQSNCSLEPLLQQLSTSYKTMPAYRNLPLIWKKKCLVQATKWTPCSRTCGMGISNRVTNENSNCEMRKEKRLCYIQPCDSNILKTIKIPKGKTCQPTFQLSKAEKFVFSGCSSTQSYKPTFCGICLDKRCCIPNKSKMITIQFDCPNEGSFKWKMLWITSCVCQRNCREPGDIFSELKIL
In words: Specificity ELISA (CCN proteins), huWISP-3. Type of data set: binding. The settings on record: coated 1 μg/ml; assessed when human CTGF signal approached saturation. The protocol:
as §1, §2

Data set [2] deals with T4, human CTGF (Homo sapiens, UniProt P29279).
T4 construct: purchased Creative Biomart
T4 sequence (P29279 with tags, fused parts or gaps H83D): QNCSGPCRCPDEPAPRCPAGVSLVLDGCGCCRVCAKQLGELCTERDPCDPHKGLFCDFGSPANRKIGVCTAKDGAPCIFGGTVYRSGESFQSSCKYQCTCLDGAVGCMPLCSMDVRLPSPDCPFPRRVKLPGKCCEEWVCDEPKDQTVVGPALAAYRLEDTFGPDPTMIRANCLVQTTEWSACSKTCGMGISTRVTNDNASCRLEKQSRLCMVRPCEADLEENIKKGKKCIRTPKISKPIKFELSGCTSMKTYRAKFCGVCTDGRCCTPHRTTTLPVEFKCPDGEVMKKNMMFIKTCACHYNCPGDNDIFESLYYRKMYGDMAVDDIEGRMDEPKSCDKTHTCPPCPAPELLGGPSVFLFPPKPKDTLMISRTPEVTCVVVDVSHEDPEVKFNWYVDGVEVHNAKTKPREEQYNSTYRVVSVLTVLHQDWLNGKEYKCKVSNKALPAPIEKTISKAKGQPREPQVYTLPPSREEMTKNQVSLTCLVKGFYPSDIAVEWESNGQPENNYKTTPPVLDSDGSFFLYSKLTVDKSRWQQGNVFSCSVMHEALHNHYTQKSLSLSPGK
Kind of data set: SPR binding kinetics and affinity, human CTGF. As to conditions: 25° C., 1:1 binding model. The procedure, abridged:
(§3)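 Biacore SPR at 25 °C; CTGF either Fc-captured via anti-human IgG (HBS-EP+) or amine-coupled to CM5 (300–1100 RU). Muteins injected 180 s contact, 900–3600 s dissociation, 30 μL/min.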
A general note: SPR reads the build-up and loss of mass on a sensor chip optically.

In data set [3] the target is T5, human CTGF (Homo sapiens, UniProt P29279, H83D).
T5 construct: purchased Creative Biomart
T5 sequence (P29279 with tags, fused parts or gaps H83D): as above
Kind of data set: SPR binding kinetics and affinity, human CTGF. The settings on record: 25° C., 1:1 binding model. The procedure, abridged:
as §3

B1: SEQ ID NO: 25: parent CTGF-binding hNGAL lipocalin mutein (protein)
chain: QDSTSDLIPAPPLSKVPLQQNFQDNQFHGKWYVVGMAGNFRLREDKDPSKMGATIYELKEDKSYNVTQVQFDDKKCLYVIETFVPGSQPGEFTLGAIKSFPGFTSQLVRVVSTNYNQHAMVFFKKVYQNREVFWITLYGRTKELTSELKENFIRFSKSLGLPENHIVFPVPIDQCIDG
modifications: lipocalin mutein
With B1, the “ELISA binding to HUMAN CTGF” value with CTGF is given as “Binding”. The same molecule displayed a TM in data set [1] of 66 °C. In addition, in the data set with huNOV, the “ELISA binding to huNOV” value is on record as “No binding”. The “ELISA binding to huWISP-3” value with huWISP-3 is given as “No binding”. In the data set with human CTGF [2], the “human CTGF koff” value was determined as 0.000248 s⁻¹. Also, in the data set with human CTGF [3], the Kd was found to be 9.27 nM and the “human CTGF kon” value came to 26800 M⁻¹ s⁻¹.

B2: SEQ ID NO: 74: fusion protein comprising two CTGF-binding lipocalin muteins (protein)
chain: QDSTSDLIPAPPLSKVPLQQNFQDNQFQGKWYVVGLAGNAILREDKQPAKMFATIYELKEDKSYDVTSVRFEAKSCKYTIKTFVPGSQPGEFTAGYIKSAPGQTSTLVRVVSTNYNQHAMVFFKHVTQNREIFVITLYGRTKELTSELKENFIRFSKSLGLPENHIVFPVPIDQCIDGGGGGSGGGGSGGGGSQDSTSDLIPAPPLSKVPLQQNFQDNQFQGKWYVVGWAGNVKLREDKQPQKMSATIYELKEDKSYDVTEVVFEQKKCHYIIKTFVPGSQPGEFTAGDIKSPPGYTSSLVRVVSTNYNQHAMVFFKKVSQNREFFWITLYGRTKELTSELKENFIRFSKSLGLPENHIVFPVPIDQCIDG
modifications: fusion protein
For B2, the “ELISA binding to HUMAN CTGF” value with CTGF is listed as “Binding”. Besides, in data set [1], the “ONSET MELTING” value was 62 °C and the TM worked out at 72 °C. The “ELISA binding to huNOV” value in the data set with huNOV is “No binding”. Moreover, in the data set with huWISP-3, the “ELISA binding to huWISP-3” value is “No binding”.

B3: SEQ ID NO: 7: parent CTGF-binding hNGAL lipocalin mutein (protein)
chain: QDSTSDLIPAPPLSKVPLQQNFQDNQFHGKWYVVGLAGNYGLRTDKRPSKMFATIYELKEDKSYDVTSVRFEQERCHYTIRTFVPGSQPGEFTTGSIKSRPGQTSSLVRVVSTNYNQHAMVFFKSVIQNREYFAITLYGRTKELTSELKENFIRFSKSLGLPENHIVFPVPIDQCIDG
modifications: lipocalin mutein
Consider B3, for which, in the data set with CTGF, the “ELISA binding to HUMAN CTGF” value is recorded as “Binding”. The molecule also yielded a TM in data set [1] of 65 °C. The “ELISA binding to huNOV” value with huNOV is given as “No binding”. In the data set with huWISP-3, the “ELISA binding to huWISP-3” value is reported as “No binding”. Besides, the “human CTGF koff” value in the data set with human CTGF [2] came out at 0.00587 s⁻¹. Moreover, in the data set with human CTGF [3], the equilibrium dissociation constant (Kd) came to 60.2 nM and the “human CTGF kon” value turned out to be 97600 M⁻¹ s⁻¹.

B4: SEQ ID NO: 3: parent CTGF-binding hNGAL lipocalin mutein (protein)
chain: QDSTSDLIPAPPLSKVPLQQNFQDNQFHGKWYVVGRAGNNRLREDKDPPKMWATIYELKEDKSYNVTHVHFMTKKCRYIIDTFVPGSQPGEFTLGAIKSGPGMTSPLVRIVSTNYNQHAMVFFKWVNQNREWFTITLYGRTKELTSELKENFIRFSKSLGLPENHIVFPVPIDQCIDG
modifications: lipocalin mutein
B4: in the data set with CTGF, the “ELISA binding to HUMAN CTGF” value is recorded as “Binding”. Also, the TM in data set [1] was found to be 58 °C. The “ELISA binding to huNOV” value with huNOV is “No binding”. Also, the “ELISA binding to huWISP-3” value with huWISP-3 is recorded as “No binding”. The “human CTGF koff” value with human CTGF [2] was found to be 0.00749 s⁻¹. For the same molecule, in the data set with human CTGF [3], the affinity, expressed as Kd, was 37.5 nM and the “human CTGF kon” value amounted to 200000 M⁻¹ s⁻¹.

B5: SEQ ID NO: 23: optimized CTGF-binding hNGAL lipocalin mutein (protein)
chain: QDSTSDLIPAPPLSKVPLQQNFQDNQFQGKWYVVGVAGNAILRPDKQPAKMFATIYELKEDKSYDVTSVRFEAKSCKYTIKTFVPGSQPGEFTSGQIKSAPGQTSTLVRVVSTNYNQHAMVFFKHVSQNREIFVITLYGRTKELTSELKENFIRFSKSLGLPENHIVFPVPIDQCIDG
modifications: lipocalin mutein
Take B5: in the data set with CTGF, the “ELISA binding to HUMAN CTGF” value is recorded as “Binding”. In data set [1], the “ONSET MELTING” value was found to be 55 °C and the TM came out at 71 °C. The “ELISA binding to huNOV” value in the data set with huNOV is recorded as “No binding”. The “ELISA binding to huWISP-3” value with huWISP-3 is recorded as “No binding”. For the same molecule, the “human CTGF koff” value with human CTGF [2] is 9.42e-06 s⁻¹. In addition, the “human CTGF kon” value with human CTGF [3] came to 122000 M⁻¹ s⁻¹.

B6: SEQ ID NO: 9: parent CTGF-binding hNGAL lipocalin mutein (protein)
chain: B5 chain with Q28H, V36L, A40K, P44I, K74R, K77S, S94A, Q96N, I132T
modifications: lipocalin mutein
With B6, the “ELISA binding to HUMAN CTGF” value with CTGF is “Binding”. Moreover, the TM in data set [1] was 64 °C. Besides, the “ELISA binding to huNOV” value with huNOV is on record as “No binding”. Further, in the data set with huWISP-3, the “ELISA binding to huWISP-3” value is “No binding”. For the same molecule, the “human CTGF koff” value in the data set with human CTGF [2] is 0.00102 s⁻¹. In the data set with human CTGF [3], binding was put at a Kd of 12.8 nM and the “human CTGF kon” value turned out to be 79800 M⁻¹ s⁻¹.

B7: SEQ ID NO: 15: optimized CTGF-binding hNGAL lipocalin mutein (protein)
chain: B5 chain with V36L, P44E, S94A, Q96Y, S127T
modifications: lipocalin mutein
Turning to B7, the “ELISA binding to HUMAN CTGF” value with CTGF was “Binding”. Besides, in data set [1], the “ONSET MELTING” value was 59 °C and the TM stood at 73 °C. In addition, the “ELISA binding to huNOV” value with huNOV was “No binding”. Further, the “ELISA binding to huWISP-3” value with huWISP-3 is listed as “No binding”. Moreover, the “human CTGF koff” value with human CTGF [2] is 4.47e-05 s⁻¹. Besides, the “human CTGF kon” value with human CTGF [3] is 81700 M⁻¹ s⁻¹.

B8: SEQ ID NO: 29: parent CTGF-binding hNGAL lipocalin mutein (protein)
chain: QDSTSDLIPAPPLSKVPLQQNFQDNQFHGKWYVVGWAGNIKLREDKDPFKMSATIYELKEDKSYNVTEVVFEQKKCHYIIKTFVPGSQPGEFTLGDIKSPPGETSSLVRVVSTNYNQHAMVFFKKVFQNREFFWITLYGRTKELTSELKENFIRFSKSLGLPENHIVFPVPIDQCIDG
modifications: lipocalin mutein
Turning to B8, in the data set with CTGF, the “ELISA binding to HUMAN CTGF” value is on record as “Binding”. The molecule also gave a TM in data set [1] of 76 °C. Moreover, in the data set with huNOV, the “ELISA binding to huNOV” value is listed as “No binding”. In addition, in the data set with huWISP-3, the “ELISA binding to huWISP-3” value was “No binding”. The “human CTGF koff” value with human CTGF [2] turned out to be 0.00112 s⁻¹. In the data set with human CTGF [3], the Kd came out at 11.2 nM and the “human CTGF kon” value turned out to be 100000 M⁻¹ s⁻¹.
